In the Immune Epitope Database (IEDB):
Each block holds one sequence with its values, some of them ahead of it.

Experiments:
Test in all cases: IEDB peptide-MHC binding, purified MHC/competitive/radioactivity; filed as Kd, often an IC50 or EC50 that approximates it; ≥ and ≤ were set here for values at or beyond the usual limits of such assays
[1] = target: HLA-A*68:02
[2] = target: HLA-A*02:02; details: source organism: Vaccinia virus WR
[3] = target: HLA-A*02:03; details: source organism: Vaccinia virus WR
[4] = target: HLA-A*02:06; details: source organism: Vaccinia virus WR
[5] = target: HLA-B*15:01; details: source organism: Vaccinia virus WR
[6] = target: HLA-A*03:01; details: source organism: Dengue virus 4 Philippines/H241/1956
[7] = target: HLA-A*31:01; details: source organism: Dengue virus 4 Philippines/H241/1956
[8] = target: HLA-A*33:01; details: source organism: Dengue virus 4 Philippines/H241/1956
[9] = target: HLA-B*08:01; details: source organism: Dengue virus 4 Philippines/H241/1956
[10] = target: HLA-B*07:02
[11] = target: HLA-B*35:01
[12] = target: HLA-B*51:01
[13] = target: HLA-B*53:01
[14] = target: HLA-B*54:01
[15] = source organism: SARS coronavirus Tor2
[16] = source organism: Lymphocytic choriomeningitis virus (strain Armstrong)
[17] = source organism: Triticum aestivum
[18] = source organism: Mammarenavirus brazilense
[19] = source organism: Vaccinia virus WR

Sequence: MVRILIGFLV
Kd ([1]; source organism: Dengue virus 4 Philippines/H241/1956): 401 nM

Sequence: QLFKYVPSA
Kd [2]: 12.3 nM
Kd [3]: 7.81 nM
Kd [4]: 349 nM
Kd [5]: 377 nM

Sequence: MLLNRFTTR
Kd [6]: 12 nM
Kd [7]: 1.5 nM
Kd [8]: 14.8 nM
Kd [9]: 2480 nM

Sequence: PPALNCYWPL
Kd [10, 15]: 12700 nM
Kd [11, 15]: ≥ 57900 nM
Kd [12, 15]: 1190 nM
Kd [13, 15]: ≥ 69900 nM
Kd [14, 15]: ≥ 37900 nM

Sequence: MPEWANFKF
Kd [10, 16]: 769 nM
Kd [11, 16]: 9.29 nM
Kd [12, 16]: ≥ 28200 nM
Kd [13, 16]: 13.5 nM
Kd [14, 16]: 1370 nM

Sequence: FAPSYSAEM
Kd [5]: 454 nM

Sequence: LTASLVMLLV
Kd ([1]; source organism: Dengue virus 4 Dominica/814669/1981): 30.3 nM

Kd [10, 17]: 1460 nM
Kd [11, 17]: ≥ 87800 nM
Kd [12, 17]: ≥ 87300 nM
Kd [13, 17]: ≥ 87700 nM
Kd [14, 17]: ≥ 87700 nM
Sequence: QPQQLPQF

Kd [10, 17]: 5550 nM
Kd [11, 17]: 1520 nM
Kd [12, 17]: 1140 nM
Kd [13, 17]: 1660 nM
Kd [14, 17]: ≥ 53800 nM
Sequence: YPLGQGSF

Sequence: QPGLLSYVI
Kd [10, 18]: 12200 nM
Kd [11, 18]: 1100 nM
Kd [12, 18]: 2260 nM
Kd [13, 18]: 308 nM
Kd [14, 18]: 5060 nM

Sequence: LPYVGDTSMM
Kd [10, 19]: 828 nM
Kd [11, 19]: 816 nM
Kd [12, 19]: 3050 nM
Kd [13, 19]: 8530 nM
Kd [14, 19]: ≥ 69900 nM

Sequence: RPLMESELV
Kd [10, 15]: 8200 nM
Kd [11, 15]: ≥ 24400 nM
Kd [12, 15]: 2370 nM
Kd [13, 15]: ≥ 42200 nM
Kd [14, 15]: ≥ 47500 nM
